In the supplement of paper PMC10567573:
± gives the standard deviation.

Assay: protein stability index of a GFP-peptide fusion (GPS, HEK-293T) (PSI 1-6); higher = more stable
[1] = treatment: DMSO, c terminus: a fixed tail appended
[2] = treatment: MLN4924 1 uM, 8 h, c terminus: a fixed tail appended
[3] = treatment: DMSO, c terminus: native
[4] = treatment: MLN4924 1 uM, 8 h, c terminus: native
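Also: 24-mer peptide tiles fused after GFP, lentivirally expressed, FACS-sorted into six equal bins by GFP/DsRed ratio, decoded by Illumina sequencing, PSI is the read-weighted mean bin number.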

| Sequence | protein stability index [1] | protein stability index [2] | protein stability index [3] | protein stability index [4] |
| --- | --- | --- | --- | --- |
| VPDREEGGSGGGGGGDEDGSLGSR [SMAD6] | 5.59 ± 0.24 | 5.33 ± 0.3 | – | – |
| RFQDGDNILEKEVLPPIHAYGNRT [FEM1B] | 3.96 ± 0.14 | 4.001 ± 0.01 | – | – |
| ALEGSALANGRALSAGSPPVPPGW [DLX1] | 3.59 ± 0.15 | 3.86 ± 0.17 | – | – |
| RLDASTSHQNLRVDDLSVEWDAMG [FSD1] | 4.51 ± 0.34 | 4.62 ± 0.34 | – | – |
| SIHCLGPIKLELLEPKANLQAALQ [VPS39] | 2.61 ± 0.34 | 2.45 ± 0.36 | – | – |
| LLRFAQVFSQMIHLNETVKAPDIE [FEM1B] | 2.67 ± 1.1 | 2.46 ± 0.85 | – | – |
| PMVARYIRINPQSWFDNGSICMRM [CPXM2] | 2.82 ± 1.1 | 1.95 ± 0.38 | – | – |
| EPSSDPSLLGEPCAGPGFTHNIAH [SPAG8] | 4.65 ± 0.074 | 4.52 ± 0.22 | – | – |
| LAEWEANPLICPVCTKYNLRITSG [RPAIN] | 3.35 ± 0.36 | 3.31 ± 0.36 | – | – |
| RWMGLACFRSLAASSPSIRQKKLM [CCDC70] | 2.29 ± 0.61 | 2.29 ± 0.4 | – | – |
| AWAAHTRLFQVVGKTDDTLALLNL [TMEM175] | 2.25 ± 0.13 | 2.03 ± 0.042 | – | – |
| PFAPEPTPPTTTAEIATASASAST [SNAP91] | 5.37 ± 0.16 | 5.41 ± 0.14 | – | – |
| LNTRSQAPLLRWVLTLSFLVATVA [HMOX1] | 2.33 ± 0.46 | 2.15 ± 0.31 | – | – |
| STTALGDKQRKANESKGTRESWDS [ELOA2] | 4.06 ± 0.49 | 4.34 ± 0.72 | – | – |
| PHTPGKPTSSCTSRSAPPGLQAPP [FOXJ1] | 4.42 ± 0.19 | 4.86 ± 0.18 | – | – |
| INQPLPDLKNVKSKIGSTDNIKYQ [MAP2] | 4.29 ± 0.17 | 4.47 ± 0.16 | – | – |
| DLAALKQRLEEETRKREDAEHNLV [PRPH] | 4.96 ± 0.46 | 4.6 ± 0.4 | – | – |
| ARHLREYQELLNVKMALDIEIATY [PRPH] | 2.34 ± 0.4 | 2.4 ± 0.37 | – | – |
| ALALQARGCSVKIWTAHYDPGHCF [ALG2] | 2.25 ± 0.41 | 2.23 ± 0.26 | – | – |
| EFPADISSITEAVPSESEPPALQN [NFE2L1] | 5.31 ± 0.36 | 5.44 ± 0.22 | – | – |
| RASATTTITTAAATSVTVPGAGVP [ZBTB22] | 4.49 ± 0.19 | 4.45 ± 0.3 | – | – |
| FYIGKYFGGVLEYFMIQALNQKTS [RHOBTB3] | 2.96 ± 0.33 | 3.31 ± 0.58 | – | – |
| IELEGISVMVMREILDYIFSGQIR [GAN] | 3.37 ± 0.23 | 2.86 ± 0.49 | – | – |

| Sequence | protein stability index [1] | protein stability index [2] | protein stability index [3] | protein stability index [4] |
| --- | --- | --- | --- | --- |
| PCVRPGVSGSPVTQNHAASALPTG [FBF1] | 4.45 ± 0.26 | 4.5 ± 0.06 | – | – |
| GDLQETTVVTGLGPDTQDLEGQSP [PBXIP1] | 5.62 ± 0.23 | 5.58 ± 0.2 | – | – |
| MRAQAQEQERRERREQAAAAPFPS [TFE3] | 5.09 ± 0.26 | 4.91 ± 0.22 | – | – |
| EDQKLQVLLTQIESKKHQVETAFE [TRIM15] | 4.29 ± 0.22 | 4.51 ± 0.29 | – | – |
| AMVWALDLDDFAGFSCNQGRYPLI [CHIT1] | 2.5 ± 0.56 | 2.65 ± 0.63 | – | – |
| VGYGDMYPVTIGGKIVGSLCAIAG [KCNA1] | 2.09 ± 0.55 | 2.45 ± 0.28 | – | – |
| PPGAEEPQAPPASRDEAALPELLL [RETREG3] | 5.25 ± 0.31 | 5.39 ± 0.17 | – | – |
| DLLKFEKKFQSEKAAGSVSKSTQF [FIS1] | 3.82 ± 0.18 | 3.53 ± 0.18 | – | – |
| NSFGAILQGSLFGLAGLLPASYTA [SLC29A1] | 2.21 ± 0.27 | 2.9 ± 0.84 | – | – |
| LSSSCCHTVPDFHLSSPAKNFFKK [PLK2] | 2.99 ± 0.18 | 3.25 ± 0.31 | – | – |
| QTVGVGRGRFTTYEIRVKTNLPIF [SNX3] | 2.83 ± 0.067 | 3.02 ± 0.22 | – | – |
| GKKKISKADIGAPSGFKHVSHVGW [WAS] | 3.06 ± 0.24 | 3.1 ± 0.15 | – | – |
| LWDTSGQGRFCTIFRSYSRGAQGV [RAB40A] | 2.24 ± 0.41 | 2.51 ± 0.36 | – | – |
| KLREFLRVEEQAILDAMAEETRQK [TRIM35] | 2.85 ± 0.53 | 3.34 ± 0.18 | – | – |
| GEGVDKLSLPARNQAGYFMLPTVI [ALDH8A1] | 2.19 ± 0.18 | 2.36 ± 0.18 | – | – |
| LLLSILNPTRQDESIQRIAVHLCN [ZER1] | 2.75 ± 0.42 | 2.42 ± 0.45 | – | – |
| KQWGPLEREPVRGQCLDSTDQLEF [RTN2] | 4.45 ± 0.35 | 4.71 ± 0.2 | – | – |
| VLRVEQQPHLPLLSTLAGIRVMVH [SCNN1D] | 2.31 ± 0.25 | 2.26 ± 0.082 | – | – |
| QTVDGKHQDLKYISPETMVALLTG [CDC25B] | 2.77 ± 0.43 | 2.8 ± 0.33 | – | – |
| VRRSSRKSKAELQSEERKRIDELI [KMT5A] | 4.62 ± 0.48 | 4.51 ± 0.39 | – | – |
| VRILLRRGVDVSLQGKDAWLPLHY [RIPK4] | 2.99 ± 1.7 | 2.29 ± 0.44 | – | – |
| NQNNYRLLSCGKILTGCKNMLFQQ [ACSBG2] | 2.9 ± 1.2 | 2.3 ± 0.69 | – | – |
| VQKDHENYMKILLKVGGILVMPIE [PCMTD1] | 2.88 ± 0.67 | 2.16 ± 0.48 | – | – |

| Sequence | protein stability index [1] | protein stability index [2] | protein stability index [3] | protein stability index [4] |
| --- | --- | --- | --- | --- |
| CYRENTHQTLKCSALATQYMHCVN [CHCHD3] | 2.17 ± 0.47 | 2.26 ± 0.43 | – | – |
| MSPSMLTRNSPRGCRLPSISSTTC [SPATS1] | 2.97 ± 0.18 | 3.03 ± 0.2 | – | – |
| LPREPGDSAQFTKALAIILHLLYL [FEM1A] | 2.16 ± 0.12 | 2.23 ± 0.12 | – | – |
| AEVNAVDNEGNSALHIIVQYNRPI [FEM1B] | 2.48 ± 0.25 | 2.48 ± 0.23 | – | – |
| CVQCGKSYSQSSNLFRHQRRHNAE [ZNF24] | 4 ± 0.16 | 4.42 ± 0.42 | – | – |
| MEKATVPVAAATAAEGEGSPPAVA [ANKRD17] | 5.67 ± 0.24 | 5.65 ± 0.11 | – | – |
| TLCQFPETLLGDPKRRMRYFDPLR [KCNA3] | 2.26 ± 0.14 | 2.5 ± 0.34 | – | – |
| DSGFLGLRPTSVDPALRRRRRGPR [NOP53] | 5.15 ± 0.4 | 5.17 ± 0.25 | – | – |
| PCSGSVSLQPRRSIAFRLRLASFD [GMCL1] | 2.58 ± 0.39 | 2.24 ± 0.27 | – | – |
| ADPLRVSSRDKLTEMAASSQGNFE [FUNDC2] | 4.96 ± 0.2 | 5.18 ± 0.26 | – | – |
| PTFMIAVFLPIVVLIFKSILFLPC [STEAP1] | 3.22 ± 0.3 | 3.3 ± 0.46 | – | – |
| HRSSRETRDYAPPSRGHAYRDYGH [RBMY1A1] | 3.87 ± 0.18 | 3.92 ± 0.17 | – | – |
| EDTQRHETYHQQGQCQVLVQRSPW [TCAP] | 4.03 ± 0.29 | 3.79 ± 0.17 | – | – |
| SIEEILEEQRVEQQTKLEAEKLKV [LSM1] | 5.11 ± 0.34 | 5.2 ± 0.22 | – | – |
| FERLCLTWMFFFMMCVAERTYKQR [PHTF1] | 2.82 ± 0.54 | 3.3 ± 0.49 | – | – |
| ITFSGRPSRVHASEVESAVWYVKK [FBXO39] | 2.41 ± 0.21 | 2.68 ± 0.32 | – | – |
| MVMIRGNSGLKPKDNEFTSKPWHW [POMT2] | 2.38 ± 0.26 | 2.21 ± 0.25 | – | – |
| YYPTSSSTSFMSSSSSSSSWLTRR [EMD] | 3.23 ± 0.19 | 3.29 ± 0.39 | – | – |
| ERGVEGDFLIRDSESSPSDFSVSL [NCK2] | 4.37 ± 0.2 | 4.26 ± 0.25 | – | – |
| DVLKYSYVRLVCKDVRAPSRPAVG [ZSWIM9] | 2.25 ± 0.26 | 1.83 ± 0.22 | – | – |
| HRDMKPDNILLDEHDTWLSYKSH [STK32A] | – | – | 3.68 ± 0.27 | 3.94 ± 0.27 |
| YEDGEVEEEADSCFGDDEDDSGTE [CDC34] | 5.61 ± 0.16 | 5.67 ± 0.12 | – | – |
| EPSSSKDSDENSKPSVDTEGPALV [MIA2] | 5.53 ± 0.45 | 5.51 ± 0.25 | – | – |

| Sequence | protein stability index [1] | protein stability index [2] | protein stability index [3] | protein stability index [4] |
| --- | --- | --- | --- | --- |
| QEHKTDEMHTALMEACMDGHVEVA [ANKRD17] | 5.19 ± 0.4 | 5.31 ± 0.21 | – | – |
| KIANLGSCNDSKLEFRSFWELIGE [S100A14] | 1.91 ± 0.33 | 2.11 ± 0.38 | – | – |
| DQGGPVEILPFLYLGSAYHASKCE [DUSP5] | 2.34 ± 0.27 | 2.43 ± 0.14 | – | – |
| GAVTASKHSNSPPLVTPPQSPVSP [SMTNL2] | 5.33 ± 0.25 | 5.26 ± 0.19 | – | – |
| GGFGGGVGGGFGGGFGGGDGGLLS [KRT15] | 3.4 ± 0.71 | 3.98 ± 0.14 | – | – |
| AASVRMRGEAEAFAIGARARAEAE [FLOT1] | 5.32 ± 0.17 | 4.96 ± 0.23 | – | – |
| IQDVVQPLTLQVQRPLVSVTVSDA [AUP1] | 3.56 ± 0.28 | 3.58 ± 0.22 | – | – |
| VMVRWNKSLEWSPWNCILLTKDEA [IQUB] | 2.57 ± 1 | 2.25 ± 0.35 | – | – |
| CMVGYDMGATRCDFTLSKTNMARI [CPXM2] | 2.24 ± 0.6 | 2.1 ± 0.22 | – | – |
| EFKRLASSKAHTSRFISANLPCNK [PTPRD] | 2.88 ± 0.1 | 2.97 ± 0.41 | – | – |
| PPGLPRVSAYVDTTADLDRKLSFS [SPATS1] | 3.79 ± 0.26 | 3.96 ± 0.23 | – | – |
| ELLCCTNVSTKEGIHLALVELLKN [INTS4] | 2.19 ± 0.74 | 2.4 ± 0.41 | – | – |
| NSESWGWDIGRGKLYHQSKGPGAP [SPSB2] | 3.63 ± 0.17 | 3.98 ± 0.25 | – | – |
| HFSQIVIFMLCTLVLAIPLLLILV [OR10K2] | 2.24 ± 0.25 | 2.25 ± 0.19 | – | – |
| GLRAATMSAVEAATCRAKELSRK [PYCR3] | – | – | 5.1 ± 0.95 | 4.97 ± 0.18 |
| WLPESDCETVTCCLFSERDAAGAP [SMAD6] | 3.72 ± 0.58 | 3.96 ± 0.27 | – | – |
| DVQNKLKESAQCVGDEFLNCKLAT [SNX8] | 3.43 ± 0.21 | 3.42 ± 0.24 | – | – |
| TTEVNAWLVHRDPEGSVSGSQPNS [NFE2L1] | 4.33 ± 0.17 | 4.64 ± 0.35 | – | – |
| KEIDDVIDEIISLESSYNDEMLSY [TFE3] | 3.27 ± 0.26 | 3.5 ± 0.3 | – | – |
| YSNTKENGINGELTSADRETAEEV [MAP2] | 5.47 ± 0.13 | 5.44 ± 0.24 | – | – |
